Test results: publication PMC8892091 (The Journal of Biological Chemistry, 2022)
Values belong to the binder of their own block, whether it stands above or below them.

Key:
His-tag labeled ALKBH6 = His-tag labeled ALKBH6 (human, UniProt Q3KRA9 1-238, fluorescent label on the His-tag (His-tag labeling kit RED-tris-NTA)); test: MST
crystal structure = target: the molecule itself; test: crystal structure

fold higher binding affinity than ALKBH6 itself (His-tag labeled ALKBH6): 3.5 fold
B1: ZMYND11 peptide (V71 to K151) (domain or fragment, human, UniProt Q15326 71-151, looked up)
chain: VGCKGSKAGIEQEGYWLPGDEIDWETENHDWYCFECHLPGEVLICDLCFRVYHSKCLSDEFRLRDSSSPWQCPVCRSIKKK

B2: ALKBH6 (crystallised, ALKBH6∙Mn2+∙α-KG; holo-ALKBH6) (enzyme, human, UniProt Q3KRA9 1-238, looked up)
chain: MEEQDARVPALEPFRVEQAPPVIYYVPDFISKEEEEYLLRQVFNAPKPKWTQLSGRKLQNWGGLPHPRGMVPERLPPWLQRYVDKVSNLSLFGGLPANHVLVNQYLPGEGIMPHEDGPLYYPTVSTISLGSHTVLDFYEPRRPEDDDPTEQPRPPPRPTTSLLLEPRSLLVLRGPAYTRLLHGIAAARVDALDAASSPPNAAACPSARPGACLVRGTRVSLTIRRVPRVLRAGLLLGK
binding result (crystal structure): binds
